Assay results from patent publication US12655454B2, “Process for producing formate using oxygen-tolerant enzymes” (GWANGJU INSTITUTE OF SCIENCE AND TECHNOLOGY, priority 2022, dated 2026).

Substrate: NC(=O)C1=CN([C@@H]2O[C@H](COP(=O)(O)OP(=O)(O)OC[C@H]3O[C@@H](n4cnc5c(N)ncnc54)[C@H](O)[C@@H]3O)[C@@H](O)[C@H]2O)C=CC1
Assay: NADH-dependent CO2 reduction kinetics of RcFDH (Michaelis-Menten)
Type: biochemical, Rhodobacter capsulatus
Conditions: Kpi buffer pH 7.0, absorbance at 365 nm
Procedure: To construct the Strep-Tag II-fused Rhodobacter capsulatu-derived formate dehydrogenase (RcFDH) expression plasmid, pTrcHis-RcFDH was used as a template. […] was performed to substitute the hexahistidine-tag for strep tag II. pTrcHis-RcFDH was amplified by PCR with the in-fusion primer (FW: SEQ ID NO: 9, RV: SEQ ID NO: 10). The PCR product was mixed with 5× In-Fusion HD Enzyme Premix to generate pTrcHis-strep-RcFDH. The E. coli MC1061 strain was transformed with pTrcHis-Strep-RcFDH, and R. eutropha HF210 [pGE771] strain was used as the Ralstonia eutropha-derived hydrogenase (ReSH)-expressing strain.
The enzyme reaction kinetics of RcFDH were measured for NADH-dependent reduction of CO2 to formate in the presence or absence of O2. The sealing cuvette was filled with 900 μL of Kpi buffer containing NADH and sealed; then, 100% CO2 and a mixed gas consisting of 4% O2 and 96 N2 (or 100% N2 for anaerobic conditions) were injected simultaneously for 30 min at 10 mL/min, respectively. RcFDH (2 mL, 2 μM) was purged with 10 mL/min N2 gas bubbling in a 10 mL sealing vial for 30 min to remove O2 from the air. The reaction was initiated by mixing 100 μL of 2 μM RcFDH with a gas-saturated solution in the sealing cuvette. The final concentration of NADH was varied from 0 to 1 mM.
All measurements were performed in triplicate based on the change in the absorbance at 365 nm in the cuvette, measured using a T60 UV-Vis spectrophotometer (PG Instruments Ltd, Lutterworth, UK). The change in the absorbance over 1 min was plotted using the Michaelis-Menten equation to calculate the kinetic parameters.
The present inventor investigated the enzymatic activities of ReSH and RcFDH in the presence or absence of O2. The NAD^+-dependent H2 oxidation reaction rate by ReSH was measured, and the Michaelis-Menten curve was fitted to calculate the kinetic parameters using Origin 2022 program (FIG. 3A). […] Similarly, the NADH-dependent CO2 reduction reaction rate by RcFDH was measured, and the Michaelis-Menten curve was fitted to calculate the kinetic parameters (FIG. 3B).

[1] = other: 0% O2, NADH varied 0 to 1 mM
[2] = other: 2% O2, NADH varied 0 to 1 mM

B1: Strep-Tag II-fused Rhodobacter capsulatus-derived formate dehydrogenase (RcFDH), SEQ ID NO: 6 to SEQ ID NO: 8 (Rhodobacter capsulatus SB 1003) (protein)
chain 1: MKIWLPCDAAAKACGAEAVLAALRLEAEKRGGALDIARNGSRGMIWLEPLLEVETPAGRIGFGPMTPADVPALFDALESHPKALGLVEEIPFFKRQTRLTFARCGRIEPLSLAQFAAAEGWAGLRKALKMTPAEVVEEVLASGLRGRGGAGFPTGIKWRTVAAAQADQKYIVCNVDEGDSGSFADRMLIEGDPFCLVEGMAIAGHAVGATRGYVYIRSEYPDAIAVMRAAIAMAKPFLAEAGFEMEVRVGAGAYVCGEETSLLNSLEGKRGTVRAKPPLPALKGLFGKPTVVNNLLSLAAVPWIIAHGAKAYESFGMDRSRGTIPLQIGGNVKRGGLFETGFGITLGELVEDICGGTASGRPVKAVQVGGPLGAYHPVSDYHLPFCYEQFAGQGGLVGHAGLVVHDDTADMLKLARFAMEFCAIESCGTCTPCRIGAVRGVEVIDRIAAGDASAMPLLDDLCQTMKLGSLCALGGFTPYPVQSAIRHFPADFPCAREAAE
chain 2: MKDLIIPPLDWTQDMGTPKREGAPVHLTIDGVEVTVPAGTSVLRAAAEAGISIPKLCATDNVEPVGSCRLCMVEIEGMRGTPTSCTTPVAPGMRVHTQTPQLQKLRRGVMELYISDHPLDCLTCAANGDCELQDMAGAVGLREVRYQAKDTHFARRDATGPNPRYIPKDNSNPYFSYDPAKCIVCMRCVRACEEVQGTFALTVMGRGFDARISPAAPDFLSSDCVSCGACVQACPTATLVEKSVERIGTPERKVVTTCAYCGVGCSFEAHMLGDQLVRMVPWKGGAANRGHSCVKGRFAYGYATHQDRILKPMIRDKITDPWREVNWTEALDFTATRLRALRDSHGADALGVITSSRCTNEETYLVQKLARAVFGTNNTDTCARVCHSPTGYGLKQTFGTSAGTQDFDSVEETDLALVIGANPTDGHPVFASRLRKRLRAGAKLIVVDPRRIDLLNTPHRGEAWHLQLKPGTNVAVMTAMAHVIVTEQIFDKRFIGDRCDWDEWADYAEFVANPEYAPEAVESLTGVPAGLLRQAARAYAAAPNAAIYYGLGVTEHSQGSTTVIAIANLAMMTGNIGRPGVGVNPLRGQNNVQGSCDMGSFPHEFPGYRHVSDDATRGLFERTWGVTLSSEPGLRIPNMLDAAVEGRFKALYVQGEDILQSDPDTRHVSAGLAAMDLVIVHDLFLNETANYAHVFLPGSTFLEKDGTFTNAERRINRVRRVMAPKAGFADWEVTQMLANALGAGWHYTHPSEIMAEIAATTPGFAAVTYEMLDARGSVQWPCNEKAPEGSPIMHVEGFVRGKGRFIRTAYLPTDEKTGPRFPLLLTTGRILSQYNVGAQTRRTENTVWHGEDRLEIHPTDAETRGIRDGDWVRLASRAGETTLRATVTDRVSPGVVYTTFHHPDTQANVVTTDTSDWATNCPEYKVTAVQVAASNGPSDWQQDYAAQAAAARRIEAAE
Q: Which results are given for B1?
A: Km [1]: 166 ± 30 µM; kcat [1]: 0.703 ± 0.043 s⁻¹; Km [2]: 141 ± 22 µM; kcat [2]: 0.699 ± 0.035 s⁻¹
